This experiment concerns the target T1, SAF-p2a.
T1 construct: also called self-assembling peptide; straight
T1 peptide: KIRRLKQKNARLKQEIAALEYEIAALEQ
The experiment in a line: co-assembly into fibres, seen by TEM (each peptide at 100 µM, 22° C. overnight). Here is the method: All samples of fibres were prepared with SAF-p1 and SAF-p2a (each at 100 μM concentration) with the designated amounts of FiSh peptides, and incubated at 22° C. overnight following the techniques described in Pandya et al., 2000 (supra).

1 molecule from patent publication US7507790 (UNIVERSITY OF SUSSEX, dated 2009) can be followed below.

B1: SAF-p1 (peptide)
peptide: KIAALKQKIASLKQEIDALEYENDALEQ
notes: Synthetic de novo leucine-zipper peptide made by Fmoc solid-phase synthesis; also called self-assembling peptide; straight
On to B1, for which the binding result was “binds”.
